The record followed here is patent US20090305946A1.

Experiment [1] addresses full-length human Presenilin-1 (human) (UniProt P49768). Nature of the experiment: cell-based or functional assay.
Experiment [2] deals with full-length human Presenilin-2 (human) (UniProt P49810). Kind of experiment: ^35S-GTPγS incorporation in extracts of co-transfected ES cells, immunoprecipitation with anti-PS MAb, scintillation counting. (In general: GTPγS is a poorly hydrolysed GTP analogue; its binding reports G protein activation.)
The target of experiment [3] is full-length human Presenilin-1 (human) (UniProt P49768). Kind of experiment: [^35S]-GTPγS labelling of extracts of co-transfected ES cells, immunoprecipitation with anti-PS-1.
Experiment [4] shares this target. Nature of the experiment: ^35S-GTPγS incorporation in extracts of co-transfected ES cells, immunoprecipitation with anti-PS-1 loop MAb, scintillation counting.
Experiment [5] addresses endogenous rat PS proteins in rat hippocampal membranes. Nature of the experiment: cell-based or functional assay.

Chain of human G-protein GαoA (P09471 2-354): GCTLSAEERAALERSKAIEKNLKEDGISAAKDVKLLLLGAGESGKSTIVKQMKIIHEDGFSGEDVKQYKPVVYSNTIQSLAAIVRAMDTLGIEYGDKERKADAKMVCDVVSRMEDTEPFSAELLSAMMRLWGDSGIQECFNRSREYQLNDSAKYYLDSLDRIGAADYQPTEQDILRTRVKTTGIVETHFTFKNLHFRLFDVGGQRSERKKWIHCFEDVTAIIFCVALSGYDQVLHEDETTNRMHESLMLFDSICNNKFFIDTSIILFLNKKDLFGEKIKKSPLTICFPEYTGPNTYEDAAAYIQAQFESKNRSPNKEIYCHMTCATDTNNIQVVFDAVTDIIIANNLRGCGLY
Chain of soluble ectodomain of human β-APP, baculovirus-derived (P05067 18-701): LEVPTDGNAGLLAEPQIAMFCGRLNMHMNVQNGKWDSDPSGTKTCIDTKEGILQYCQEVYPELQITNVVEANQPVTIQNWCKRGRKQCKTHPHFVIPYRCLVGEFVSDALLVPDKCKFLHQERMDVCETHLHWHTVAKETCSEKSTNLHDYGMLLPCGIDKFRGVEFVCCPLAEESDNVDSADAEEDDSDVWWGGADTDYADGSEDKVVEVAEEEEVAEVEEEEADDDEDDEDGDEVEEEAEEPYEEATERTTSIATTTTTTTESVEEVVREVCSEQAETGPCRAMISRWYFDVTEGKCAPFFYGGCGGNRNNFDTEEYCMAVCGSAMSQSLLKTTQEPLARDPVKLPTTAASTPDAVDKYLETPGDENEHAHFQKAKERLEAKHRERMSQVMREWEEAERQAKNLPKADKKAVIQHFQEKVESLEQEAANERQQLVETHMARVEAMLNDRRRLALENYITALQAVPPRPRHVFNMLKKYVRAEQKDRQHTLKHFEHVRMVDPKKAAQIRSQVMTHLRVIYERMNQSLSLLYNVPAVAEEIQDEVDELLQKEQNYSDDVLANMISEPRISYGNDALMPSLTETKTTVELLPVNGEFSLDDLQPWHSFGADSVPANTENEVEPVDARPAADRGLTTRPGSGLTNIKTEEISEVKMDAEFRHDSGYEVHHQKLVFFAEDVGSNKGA

Turning to “full-length human β-amyloid precursor protein (from UniProt P05067 18-770) (ligand)”, in experiment [1], the ^35S-GTPγS incorporation (Gαo immunoprecipitated with K-20), high density co-culture (% increase over basal) was found to be 200; the ^35S-GTPγS incorporation (Gαo immunoprecipitated with K-20), high density co-culture with PTx (% lower than basal) was determined as 38; the ^35S-GTPγS incorporation (Gαo immunoprecipitated with K-20), low density co-culture (% increase over basal) is 33.
“human G-protein GαoA (from UniProt P09471 2-354)” displayed a % increase in ^35S-GTPγS binding over untransfected control in experiment [2] of 700%. This substance also had a fold increase in ^35S-incorporation immunoprecipitated with antibody to PS-1 in experiment [3] of 8 fold. In experiment [4], this substance had a ^35S-GTPγS incorporation, % of untransfected control of 700%.
In the case of “soluble ectodomain of human β-APP, baculovirus-derived (from UniProt P05067 18-701) (ligand)”, the ^35S-GTPγS incorporation (Gαo) in PS-1-only APP-/- fibroblasts in experiment [1] was 500 % increase. In experiment [5], the ^35S-GTPγS incorporation in solubilized rat hippocampal membranes was 600 % increase and the ^35S-GTPγS incorporation in solubilized rat hippocampal membranes (% greater than untreated) stood at 100.
